From doi:10.1101/2020.05.13.092544 (bioRxiv, 2020)

Target: the molecule itself
Assay: SDS-PAGE

B1: His6-tagged periplasmic copper binding loop (sensor domain) of CopS, CopS(34-151) (domain or fragment, Pseudomonas aeruginosa, UniProt Q9I033 34-151, looked up)
chain: FSRAIDEHFVELDHMAMSAKLAVFRDELRGLGSEQQMRRREAELLRELARHPDLGLRLNGPDGNLWFERLPQPAHPGLPANRELGAPLEPGNDASPRLTVILDISHHQHFLQRMRQLI
binding result: binds
